Results: the supplement of paper PMC9732359
± gives the uncertainty stated by the source.

Assay: protein stability index of a GFP-peptide fusion (yeast GPS) (PSI 1-4); higher = more stable; sorted into four equal gates, so the index is relative within each strain
Summary of the method: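 Sequencing reads from sorted gates were used to score each peptide. The library consisted of tiled 17-residue yeast protein peptides fused downstream of GFP on a Cherry-expressing plasmid, pooled and carried in yeast. Mid-log cultures in leucine-free medium were split into four equal gates by GFP/Cherry ratio, and each gate's plasmids were PCR-amplified and Illumina-sequenced. The protein stability index adds up, over all gates, the read frequency multiplied by the gate number.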

Sequence: ILKRDFELVSDLSYIEF [ECM29]
- protein stability index (doa10∆): 2.54 ± 0.079
- protein stability index (pdr5∆): 2.67 ± 0.078
- protein stability index (san1∆): 2.58 ± 0.072
- protein stability index (ubr1∆): 2.76 ± 0.054

Sequence: ILLTSISRERDLFTHLW [SRP68]
- protein stability index (doa10∆): 2.85 ± 0.13
- protein stability index (pdr5∆): 2.71 ± 0.18
- protein stability index (san1∆): 2.75 ± 0.1
- protein stability index (ubr1∆): 2.73 ± 0.11

Sequence: ILRMGAFRTIESKSDDN [RRI1]
- protein stability index (doa10∆): 2.88 ± 0.094
- protein stability index (pdr5∆): 2.8 ± 0.11
- protein stability index (san1∆): 2.92 ± 0.066
- protein stability index (ubr1∆): 2.56 ± 0.065

Sequence: ILSLEQSSRVVSLSQLL [YCS4]
- protein stability index (doa10∆): 1.84 ± 0.072
- protein stability index (pdr5∆): 1.5 ± 0.05
- protein stability index (san1∆): 2.12 ± 0.098
- protein stability index (ubr1∆): 1.85 ± 0.063

Sequence: ILVMETSEEQTKFLAKN [SWP82]
- protein stability index (doa10∆): 3.01 ± 0.094
- protein stability index (pdr5∆): 2.91 ± 0.11
- protein stability index (san1∆): 2.94 ± 0.048
- protein stability index (ubr1∆): 3 ± 0.092

Sequence: IMGFISYHNGNLKGRPY [FAS2]
- protein stability index (doa10∆): 3 ± 0.13
- protein stability index (pdr5∆): 2.95 ± 0.11
- protein stability index (san1∆): 3.28 ± 0.057
- protein stability index (ubr1∆): 3.01 ± 0.12

Sequence: IMSTEAHVNKVTEETTK [SIR4]
- protein stability index (doa10∆): 2.77 ± 0.09
- protein stability index (pdr5∆): 2.89 ± 0.059
- protein stability index (san1∆): 2.97 ± 0.04
- protein stability index (ubr1∆): 2.85 ± 0.063

Sequence: INAKNIAFASNYGIVEL [RRP43]
- protein stability index (doa10∆): 2.04 ± 0.053
- protein stability index (pdr5∆): 1.49 ± 0.056
- protein stability index (san1∆): 1.4 ± 0.14
- protein stability index (ubr1∆): 1.84 ± 0.051

Sequence: INDPTNKEYTLVHGIFG [SIN4]
- protein stability index (doa10∆): 2.1 ± 0.09
- protein stability index (pdr5∆): 2.21 ± 0.091
- protein stability index (san1∆): 2.25 ± 0.13
- protein stability index (ubr1∆): 1.94 ± 0.19

Sequence: INDRNDRAIRKTCQWYS [DIS3]
- protein stability index (doa10∆): 3.21 ± 0.087
- protein stability index (pdr5∆): 3.09 ± 0.097
- protein stability index (san1∆): 2.98 ± 0.068
- protein stability index (ubr1∆): 3.25 ± 0.12

Sequence: INGEDPANNHQLGLQTV [SMX2]
- protein stability index (doa10∆): 2.93 ± 0.11
- protein stability index (pdr5∆): 2.94 ± 0.1
- protein stability index (san1∆): 2.9 ± 0.073
- protein stability index (ubr1∆): 3.08 ± 0.06

Sequence: INLNVDDDILIIRPILG [SRB4]
- protein stability index (doa10∆): 3.42 ± 0.15
- protein stability index (pdr5∆): 3.07 ± 0.1
- protein stability index (san1∆): 3.21 ± 0.059
- protein stability index (ubr1∆): 3.21 ± 0.057

Sequence: INNPVNLTIHFGGEKGK [FAS1]
- protein stability index (doa10∆): 2.97 ± 0.068
- protein stability index (pdr5∆): 2.8 ± 0.097
- protein stability index (san1∆): 2.8 ± 0.07
- protein stability index (ubr1∆): 3.25 ± 0.069

Sequence: INSIDTTESSDLKEGLQ [GRR1]
- protein stability index (doa10∆): 2.54 ± 0.062
- protein stability index (pdr5∆): 2.6 ± 0.046
- protein stability index (san1∆): 3.18 ± 0.037
- protein stability index (ubr1∆): 3.05 ± 0.032

Sequence: INSPMPQQAQMQQAQFQ [SNF2]
- protein stability index (doa10∆): 2.98 ± 0.093
- protein stability index (pdr5∆): 2.98 ± 0.089
- protein stability index (san1∆): 3.11 ± 0.1
- protein stability index (ubr1∆): 2.98 ± 0.083

Sequence: INSSNEALVQAFAFCIP [YCG1]
- protein stability index (doa10∆): 2.18 ± 0.055
- protein stability index (pdr5∆): 2.31 ± 0.051
- protein stability index (san1∆): 2.49 ± 0.059
- protein stability index (ubr1∆): 2.09 ± 0.041

Sequence: INYHQYISKAQNDQWSI [SSN2]
- protein stability index (doa10∆): 2.63 ± 0.058
- protein stability index (pdr5∆): 2.83 ± 0.053
- protein stability index (san1∆): 2.56 ± 0.051
- protein stability index (ubr1∆): 2.73 ± 0.056

Sequence: INYLLTLAITTVTNSKF [RPN2]
- protein stability index (doa10∆): 2.22 ± 0.062
- protein stability index (pdr5∆): 2.91 ± 0.078
- protein stability index (san1∆): 2.1 ± 0.074
- protein stability index (ubr1∆): 2.67 ± 0.067

Sequence: INYQVDSKLLPKNIEPP [SWI3]
- protein stability index (doa10∆): 2.92 ± 0.083
- protein stability index (pdr5∆): 2.81 ± 0.1
- protein stability index (san1∆): 2.58 ± 0.064
- protein stability index (ubr1∆): 2.65 ± 0.066

Sequence: IPGLSAGVNNDNTKESK [RTT102]
- protein stability index (doa10∆): 3.59 ± 0.11
- protein stability index (pdr5∆): 3.52 ± 0.083
- protein stability index (san1∆): 3.38 ± 0.071
- protein stability index (ubr1∆): 3.35 ± 0.081

Sequence: IPNIPPNINTWQQVTAL [GAL11]
- protein stability index (doa10∆): 2.96 ± 0.14
- protein stability index (pdr5∆): 3.15 ± 0.1
- protein stability index (san1∆): 2.9 ± 0.11
- protein stability index (ubr1∆): 2.54 ± 0.12

Sequence: IPNQEVLQYSDWESDLH [YDL116W/NUP84]
- protein stability index (doa10∆): 2.1 ± 0.056
- protein stability index (pdr5∆): 2 ± 0.056
- protein stability index (san1∆): 2.43 ± 0.043
- protein stability index (ubr1∆): 2.18 ± 0.057

Sequence: IPNRRFTLWWSPTINRA [PRP8]
- protein stability index (doa10∆): 2.65 ± 0.069
- protein stability index (pdr5∆): 2.28 ± 0.065
- protein stability index (san1∆): 1.65 ± 0.052
- protein stability index (ubr1∆): 2.29 ± 0.047

Sequence: IPSPLSSTKPPGSVNSA [NUT1]
- protein stability index (doa10∆): 2.76 ± 0.056
- protein stability index (pdr5∆): 2.84 ± 0.058
- protein stability index (san1∆): 2.86 ± 0.076
- protein stability index (ubr1∆): 2.85 ± 0.044

Sequence: IPTTKNLRLLVEENRVR [DLS1]
- protein stability index (pdr5∆): 3.08 ± 0.1
- protein stability index (san1∆): 2.87 ± 0.097
- protein stability index (ubr1∆): 2.12 ± 0.061

Sequence: IPVGLMAQENSMERKVQ [MCD1]
- protein stability index (pdr5∆): 3.38 ± 0.29
- protein stability index (ubr1∆): 3.19 ± 0.1

Sequence: IQEIKESVELPLTHPEL [RPT2]
- protein stability index (doa10∆): 2.7 ± 0.073
- protein stability index (pdr5∆): 2.97 ± 0.069
- protein stability index (san1∆): 2.74 ± 0.068
- protein stability index (ubr1∆): 2.75 ± 0.035
